From PMC9909325, “Crystal structure of the phosphorylated Arabidopsis MKK5 reveals activation mechanism of MAPK kinases” (Acta Biochimica et Biophysica Sinica, 2022)

T1: AtMKK5-KD (Arabidopsis thaliana, UniProt Q8RXG3)
T1 construct: gene MKK5; kinase domain, residues 62-335, N-terminal His6-tag, pET28b, E. coli BL21(DE3); phosphorylated at Ser66, Thr83, Thr108, Thr215, Ser221
T1 sequence (Q8RXG3 62-335): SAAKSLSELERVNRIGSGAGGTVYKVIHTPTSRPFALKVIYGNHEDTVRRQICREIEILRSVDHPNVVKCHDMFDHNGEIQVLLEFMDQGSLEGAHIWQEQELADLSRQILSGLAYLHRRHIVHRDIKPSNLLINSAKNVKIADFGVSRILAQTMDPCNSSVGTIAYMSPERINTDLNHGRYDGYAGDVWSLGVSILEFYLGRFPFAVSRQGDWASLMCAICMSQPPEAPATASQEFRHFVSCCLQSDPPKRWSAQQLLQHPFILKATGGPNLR


How the values were obtained:
[1] = target: T1, AtMKK5-KD; assay: PK/LDH-coupled NADH oxidation at […] nm (ATPase); type: biochemical; settings: 1 mM ATP, 20 nM phosphorylated kinase domain; 10 mM MgCl2, pH 7.0, 25 °C
[2] = target: AtMPK6(K92M) (Arabidopsis thaliana) (UniProt Q39026)
[3] = substrate: Nc1ncnc2c1ncn2[C@@H]1O[C@H](COP(=O)(O)OP(=O)(O)OP(=O)(O)O)[C@@H](O)[C@H]1O; assay: purified protein; type: biochemical, Arabidopsis thaliana; settings: no protein substrate, 10 mM MgCl2, 50 mM MOPS pH 7.0, 100 mM NaCl, 25 °C, phosphorylated enzyme 20 nM

Chain of AtMPK6(K92M) (Arabidopsis thaliana) (Q39026 whole entry K92M): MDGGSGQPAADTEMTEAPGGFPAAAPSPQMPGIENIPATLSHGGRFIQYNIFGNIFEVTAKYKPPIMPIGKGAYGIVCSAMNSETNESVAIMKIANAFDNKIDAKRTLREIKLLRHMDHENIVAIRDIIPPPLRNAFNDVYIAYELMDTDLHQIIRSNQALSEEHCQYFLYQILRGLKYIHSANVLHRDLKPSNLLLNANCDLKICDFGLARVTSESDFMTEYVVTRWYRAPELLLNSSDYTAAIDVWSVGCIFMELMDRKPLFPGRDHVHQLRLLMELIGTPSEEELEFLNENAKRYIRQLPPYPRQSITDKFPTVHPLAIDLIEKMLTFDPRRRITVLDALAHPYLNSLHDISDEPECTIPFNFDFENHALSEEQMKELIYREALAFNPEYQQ

| Molecule | decrease of AtMPK6(K92M) phosphorylation activity against wild-type AtMKK5, coupled spectrophotometric assay (20 nM AtMKK5, 1 mM ATP, 1 μM AtMPK6(K92M)) (fold decrease) [2] | other results |
| --- | --- | --- |
| Nc1ncnc2c1ncn2[C@@H]1O[C@H](COP(=O)(O)OP(=O)(O)OP(=O)(O)O)[C@@H](O)[C@H]1O [ATP] | – | PK/LDH-coupled NADH oxidation at 340 nm (ATPase) [1]: examined their effects on the catalytic function of AtMKK5-KD |
| AtMKK5 LLL3A (full length; Leu24, Leu26 and Leu28 all replaced by Ala) (enzyme, phosphorylated at Ser/Thr residues (signals similar to the wild type; sites not stated)) MKPIQSPSGVASPMKNRLRKRPDASAPAPHRDVALAVPLPLPPPSSSSSAPASSSAISTNISAAKSLSELERVNRIGSGAGGTVYKVIHTPTSRPFALKVIYGNHEDTVRRQICREIEILRSVDHPNVVKCHDMFDHNGEIQVLLEFMDQGSLEGAHIWQEQELADLSRQILSGLAYLHRRHIVHRDIKPSNLLINSAKNVKIADFGVSRILAQTMDPCNSSVGTIAYMSPERINTDLNHGRYDGYAGDVWSLGVSILEFYLGRFPFAVSRQGDWASLMCAICMSQPPEAPATASQEFRHFVSCCLQSDPPKRWSAQQLLQHPFILKATGGPNLRQMLPPPRPLPSAS | – | drop of the initial velocity of AtMPK6(K92M) phosphorylation against wild-type AtMKK5, coupled spectrophotometric assay (20 nM AtMKK5, 1 mM ATP, 1 μM AtMPK6(K92M)) (fold decrease) [2]: 90 |
| AtMKK5 K20A (full length) (enzyme, phosphorylated at Ser/Thr residues (signals similar to the wild type; sites not stated)) MKPIQSPSGVASPMKNRLRARPDLSLPLPHRDVALAVPLPLPPPSSSSSAPASSSAISTNISAAKSLSELERVNRIGSGAGGTVYKVIHTPTSRPFALKVIYGNHEDTVRRQICREIEILRSVDHPNVVKCHDMFDHNGEIQVLLEFMDQGSLEGAHIWQEQELADLSRQILSGLAYLHRRHIVHRDIKPSNLLINSAKNVKIADFGVSRILAQTMDPCNSSVGTIAYMSPERINTDLNHGRYDGYAGDVWSLGVSILEFYLGRFPFAVSRQGDWASLMCAICMSQPPEAPATASQEFRHFVSCCLQSDPPKRWSAQQLLQHPFILKATGGPNLRQMLPPPRPLPSAS | 3 | – |
| AtMKK5 L24A (full length) (enzyme, phosphorylated at Ser/Thr residues (signals similar to the wild type; sites not stated)) MKPIQSPSGVASPMKNRLRKRPDASLPLPHRDVALAVPLPLPPPSSSSSAPASSSAISTNISAAKSLSELERVNRIGSGAGGTVYKVIHTPTSRPFALKVIYGNHEDTVRRQICREIEILRSVDHPNVVKCHDMFDHNGEIQVLLEFMDQGSLEGAHIWQEQELADLSRQILSGLAYLHRRHIVHRDIKPSNLLINSAKNVKIADFGVSRILAQTMDPCNSSVGTIAYMSPERINTDLNHGRYDGYAGDVWSLGVSILEFYLGRFPFAVSRQGDWASLMCAICMSQPPEAPATASQEFRHFVSCCLQSDPPKRWSAQQLLQHPFILKATGGPNLRQMLPPPRPLPSAS | 10 | – |
| AtMKK5 L26A (full length) (enzyme, phosphorylated at Ser/Thr residues (signals similar to the wild type; sites not stated)) MKPIQSPSGVASPMKNRLRKRPDLSAPLPHRDVALAVPLPLPPPSSSSSAPASSSAISTNISAAKSLSELERVNRIGSGAGGTVYKVIHTPTSRPFALKVIYGNHEDTVRRQICREIEILRSVDHPNVVKCHDMFDHNGEIQVLLEFMDQGSLEGAHIWQEQELADLSRQILSGLAYLHRRHIVHRDIKPSNLLINSAKNVKIADFGVSRILAQTMDPCNSSVGTIAYMSPERINTDLNHGRYDGYAGDVWSLGVSILEFYLGRFPFAVSRQGDWASLMCAICMSQPPEAPATASQEFRHFVSCCLQSDPPKRWSAQQLLQHPFILKATGGPNLRQMLPPPRPLPSAS | 10 | – |
| AtMKK5 (full-length, phosphorylated; p-AtMKK5) (Arabidopsis thaliana) (protein, full-length (348 residues), N-terminal His6-tag, pET28b, E. coli BL21(DE3); phosphorylated at Ser/Thr as purified) MKPIQSPSGVASPMKNRLRKRPDLSLPLPHRDVALAVPLPLPPPSSSSSAPASSSAISTNISAAKSLSELERVNRIGSGAGGTVYKVIHTPTSRPFALKVIYGNHEDTVRRQICREIEILRSVDHPNVVKCHDMFDHNGEIQVLLEFMDQGSLEGAHIWQEQELADLSRQILSGLAYLHRRHIVHRDIKPSNLLINSAKNVKIADFGVSRILAQTMDPCNSSVGTIAYMSPERINTDLNHGRYDGYAGDVWSLGVSILEFYLGRFPFAVSRQGDWASLMCAICMSQPPEAPATASQEFRHFVSCCLQSDPPKRWSAQQLLQHPFILKATGGPNLRQMLPPPRPLPSAS | – | Km [3]: 96.2 ± 3.5 µM; kcat [3]: 1.96 ± 0.02 s⁻¹ |

Further lines, with some results ahead:

| decrease of AtMPK6(K92M) phosphorylation activity against wild-type AtMKK5, coupled spectrophotometric assay (20 nM AtMKK5, 1 mM ATP, 1 μM AtMPK6(K92M)) (fold decrease) [2] | Molecule | other results |
| --- | --- | --- |
| 25 | AtMKK5 RRKR4A (full length; Arg17, Arg19, Lys20 and Arg21 all replaced by Ala) (enzyme, phosphorylated at Ser/Thr residues (signals similar to the wild type; sites not stated)) MKPIQSPSGVASPMKNALAAAPDLSLPLPHRDVALAVPLPLPPPSSSSSAPASSSAISTNISAAKSLSELERVNRIGSGAGGTVYKVIHTPTSRPFALKVIYGNHEDTVRRQICREIEILRSVDHPNVVKCHDMFDHNGEIQVLLEFMDQGSLEGAHIWQEQELADLSRQILSGLAYLHRRHIVHRDIKPSNLLINSAKNVKIADFGVSRILAQTMDPCNSSVGTIAYMSPERINTDLNHGRYDGYAGDVWSLGVSILEFYLGRFPFAVSRQGDWASLMCAICMSQPPEAPATASQEFRHFVSCCLQSDPPKRWSAQQLLQHPFILKATGGPNLRQMLPPPRPLPSAS | – |
| 10 | AtMKK5 L28A (full length) (enzyme, phosphorylated at Ser/Thr residues (signals similar to the wild type; sites not stated)) MKPIQSPSGVASPMKNRLRKRPDLSLPAPHRDVALAVPLPLPPPSSSSSAPASSSAISTNISAAKSLSELERVNRIGSGAGGTVYKVIHTPTSRPFALKVIYGNHEDTVRRQICREIEILRSVDHPNVVKCHDMFDHNGEIQVLLEFMDQGSLEGAHIWQEQELADLSRQILSGLAYLHRRHIVHRDIKPSNLLINSAKNVKIADFGVSRILAQTMDPCNSSVGTIAYMSPERINTDLNHGRYDGYAGDVWSLGVSILEFYLGRFPFAVSRQGDWASLMCAICMSQPPEAPATASQEFRHFVSCCLQSDPPKRWSAQQLLQHPFILKATGGPNLRQMLPPPRPLPSAS | – |
| 3 | AtMKK5 R19A (full length) (enzyme, phosphorylated at Ser/Thr residues (signals similar to the wild type; sites not stated)) MKPIQSPSGVASPMKNRLAKRPDLSLPLPHRDVALAVPLPLPPPSSSSSAPASSSAISTNISAAKSLSELERVNRIGSGAGGTVYKVIHTPTSRPFALKVIYGNHEDTVRRQICREIEILRSVDHPNVVKCHDMFDHNGEIQVLLEFMDQGSLEGAHIWQEQELADLSRQILSGLAYLHRRHIVHRDIKPSNLLINSAKNVKIADFGVSRILAQTMDPCNSSVGTIAYMSPERINTDLNHGRYDGYAGDVWSLGVSILEFYLGRFPFAVSRQGDWASLMCAICMSQPPEAPATASQEFRHFVSCCLQSDPPKRWSAQQLLQHPFILKATGGPNLRQMLPPPRPLPSAS | – |
| 3 | AtMKK5 R21A (full length) (enzyme, phosphorylated at Ser/Thr residues (signals similar to the wild type; sites not stated)) MKPIQSPSGVASPMKNRLRKAPDLSLPLPHRDVALAVPLPLPPPSSSSSAPASSSAISTNISAAKSLSELERVNRIGSGAGGTVYKVIHTPTSRPFALKVIYGNHEDTVRRQICREIEILRSVDHPNVVKCHDMFDHNGEIQVLLEFMDQGSLEGAHIWQEQELADLSRQILSGLAYLHRRHIVHRDIKPSNLLINSAKNVKIADFGVSRILAQTMDPCNSSVGTIAYMSPERINTDLNHGRYDGYAGDVWSLGVSILEFYLGRFPFAVSRQGDWASLMCAICMSQPPEAPATASQEFRHFVSCCLQSDPPKRWSAQQLLQHPFILKATGGPNLRQMLPPPRPLPSAS | – |
